Assay [1] deals with T1, amyloid beta 1-42 oligomer (UniProt P05067 672-713).
T1 construct: domain: amyloid beta 1-42; Soluble oligomeric aggregate; also called Aβ-oligomers; oligomeric amyloid beta 1-42
Put plainly: ELISA on immobilized oligomer (5 µg/ml), anti-FLAG-M2-HRP detection; ng/ml, as measured in the ELISA. The method, then:
To probe the binding affinities of CBB-VNAR towards different amyloid beta species and aggregation states, ELISA assays were performed. As a comparator antibody, the well-characterized 6E10 antibody was used. The 6E10 antibody recognizes N-terminal amino acid residues 3-8 of amyloid beta (EFRHDS), an epitope that is present and available for antibody binding in amyloid beta 1-42 derived antigens regardless of the physical form or aggregation state (Crisostomo et al., 2015. Data Brief. 2015 Aug. 6; 4:650-8.; Frenzel et al., 2014. PLoS One. 2014 Mar. 3; 9(3):e89490). Amyloid beta aggregates were prepared by incubation of monomeric synthetic amyloid beta 1-42 monomer in either F-12 medium (for oligomers) or 10 mM HCl (for fibrils) essentially as described by Dahlgren et al. (2002. J Biol Chem. 2002 Aug. 30; 277(35):32046-53). Amyloid beta derived antigens in different forms (oligomer, monomer, fibril, all at 5 μg/ml) were immobilized to Nunc Amino Immobilizer plates and blocked with ethanolamine according to the manufacturer's instructions. After washing, plates were probed with different concentrations of either FLAG-tagged CBB-VNAR or biotinylated 6E10 antibody (in parallel and on the same plates) for 1 hour. Bound antibody was then detected using anti-FLAG-M2-HRP (for CBB-VNAR) or with streptavidin-HRP (for 6E10-biotin). […]
(In general: ELISA stands for enzyme-linked immunosorbent assay.)

Assay [2] addresses T1, amyloid beta 1-42 oligomer. The assay can be described thus: intrinsic Trp fluorescence titration, 0.5 uM CBB-VNAR in PBS pH 7.2 with 0.5 mM EDTA, excitation 280 nm. An excerpt:
The amino acid residue tryptophan (Trp or W) intrinsically fluoresces upon excitation in the range 280-295 nm. The emission intensity (i.e. quantum yield) and emission wavelength are sensitive towards the local environment of the Trp residue. The local environment can change, for example, when the Trp residue is involved in conformational changes or ligand binding. Therefore, Trp emission is widely used to study proteins and their interaction with other proteins or small molecules. […] To evaluate whether the Trp residues of CBB-VNAR are involved in the binding of amyloid beta oligomer antigen, a fluorescence titration study was performed. For this experiment, 0.5 uM CBB-VNAR or 12Y2 control VNAR were titrated with known quantities of amyloid beta oligomer (ABO) in Phosphate Buffered Saline (PBS) buffer, pH 7.2. […] After each ABO addition, the sample was equilibrated until the Trp fluorescence intensity was stable, and Trp emission spectra were recorded between 320 and 450 nm using 280 nm excitation. […] Upon addition of ABO, the emission intensity of CBB-VNAR decreases in a dose-dependent and saturable fashion where the intensity decreases to about 70% of the intensity measured for the native protein (FIGS. 5A and C). […]

For assay [3], the target named is T1, amyloid beta 1-42 oligomer. The assay can be described thus: intrinsic Trp fluorescence quenching; the varied concentration is that of the oligomer (ABO), with CBB-VNAR fixed at 0.5 uM. The source says: Therefore, Trp emission is widely used to study proteins and their interaction with other proteins or small molecules. The invariable core structure of the VNAR as isolated from wobbegong sharks has two Trp residues (see sequence below, Trp indicated in black) of which one is buried inside the protein whereas the other is exposed to the solvent (see FIG. 5D). The CBB-VNAR has two additional Trp residues in the CDR regions (one in CDR1, one in CDR3). No Trp residues are present in the CDR regions of the 12Y2 control protein. Apart from the CDR sequences, this control 12Y2 protein has an amino acid sequence identical to that of CBB-VNAR. To evaluate whether the Trp residues of CBB-VNAR are involved in the binding of amyloid beta oligomer antigen, a fluorescence titration study was performed. For this experiment, 0.5 uM CBB-VNAR or 12Y2 control VNAR were titrated with known quantities of amyloid beta oligomer (ABO) in Phosphate Buffered Saline (PBS) buffer, pH 7.2. […] After each ABO addition, the sample was equilibrated until the Trp fluorescence intensity was stable, and Trp emission spectra were recorded between 320 and 450 nm using 280 nm excitation. […] Upon addition of ABO, the emission intensity of CBB-VNAR decreases in a dose-dependent and saturable fashion where the intensity decreases to about 70% of the intensity measured for the native protein (FIGS. 5A and C). […]

For assay [4], the target named is T2, Stable Crossbeta oligomers (Perkin Elmer Amyloid Oligomers AlphaLISA High-Specificity Detection Kit (AL334F)) (UniProt P05067 672-713).
T2 construct: also called Aβ-oligomers
The assay can be described thus: sandwich ELISA: CBB-VNAR coated at 2 µg/ml as capture, the stable oligomer concentration is varied, detection with 6E10-biotin and streptavidin-HRP; sandwich ELISA; CBB-VNAR coated 2 µg/ml as capture; stable Crossbeta oligomer titrated. The method, then:
(§1) The generic amyloid beta binding antibody 6E10-biotin was immobilized on streptavidin Alphascreen®donor beads, while FLAG-tagged CBB-VNAR was immobilized on anti-FLAG Alphascreen®acceptor beads. These beads were incubated with different concentrations of amyloid beta 1-42 derived antigens (oligomers, monomers, fibrils, all prepared as described in example 1). In this format, a specific signal is generated when donor/6E10 and acceptor/CBB-VNAR beads simultaneously bind to different epitopes on the same molecule. […] Plates were then read using a Perkinelmer Enspire® plate reader using the 384 well factory preset measuring protocol. […] Stable Crossbeta oligomers (Perkin Elmer Amyloid Oligomers AlphaLISA High-Specificity Detection Kit (AL334F)) were also detected using an ELISA sandwich immunoassay format where the CBB-VNAR was immobilized to Nunc amino immobilizer plates (2 μg/ml coating, 1 hr rT) to serve as oligomer capture molecule. After incubation of the CBB-VNAR coated wells with different amounts of stable oligomer for 1 hour, wells were washed and bound oligomer was detected using sequential incubation with 6E10-biotin and streptavidin-HRP as described in example 1.

Assay [5] has as its target T1, amyloid beta 1-42 oligomer. Put plainly: Alphascreen proximity sandwich: 6E10-biotin on streptavidin donor beads, CBB-VNAR on anti-FLAG acceptor beads; the oligomer concentration is varied; Alphascreen bead sandwich with 6E10-biotin; oligomer in solution titrated; apparent EC50. The method, then:
as §1

T1 sequence (P05067 672-713 limits assumed): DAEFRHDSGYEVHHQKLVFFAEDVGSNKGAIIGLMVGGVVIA
T2 sequence (P05067 672-713): as the sequence (P05067 672-713 limits assumed) above

B1: CBB-VNAR (FLAG-tagged) (VNAR)
VNAR: AWVDQTPRTATKETGESLTINCVLRDQNGWSRTGWYRTKLGSTNEQSISIGGRYVETVNKGSKSFSLRISDLRVEDSGTYKCQALLNPRREEFWFSRRYPVVKGAGTALTVKA
notes: Monomeric shark-type VNAR single domain (Mw 15 kDa); not shown: FLAG tag
In general, EC50 refers to the midpoint of the concentration-response curve. As a reminder, the EC50 (read off the curve) is the concentration needed to bring the measured effect to its halfway point. On to B1, for which the EC50 came to 0.004 µg/mL in assay [1], 0.01 µg/mL in assay [4] and 0.1 µg/mL in assay [5]. Also, the “Trp emission intensity at saturation with oligomer, relative to the native protein” value in assay [2] is about 70%. Further, the concentration for a half-maximal effect (EC50 (read off the curve)) in assay [3] was about 8 µg/mL.

For the origin of these results see patent US20190292247A1 (DEGENRX B V, published 2019).
